The text below walks through data of the supplement of paper PMC10567573.

B1: MLL5 (parent)
chain: EQIAERKRKMVSWEASSLGLVTAA
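Also: lentivirally expressed fusions sorted by FACS into six bins by GFP to DsRed ratio, PSI derived from sequencing read proportions per bin multiplied by bin number.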

In the data set the parent is B1. Nature of the data set: protein stability index of a GFP-peptide fusion (GPS, HEK-293T) (PSI 1-6); higher = more stable. The following applies: c terminus: a fixed tail appended.
Turning to EQIAERKRKMVSWLASSLGLVTAA [E14L], the protein stability index stood at 2.95.
On to EQIAERKRKMVSWRASSLGLVTAA [E14R], for which the protein stability index was 2.31.
As to EQIAERKRKMVSWAASSLGLVTAA [E14A], the protein stability index was determined as 2.8.
For EQIAERKRKMVSWTASSLGLVTAA [E14T], the protein stability index was 3.
Take EQIAERKRKMVSWCASSLGLVTAA [E14C]: the protein stability index was 2.49.
Turning to EQIAERKRKMVSWIASSLGLVTAA [E14I], the protein stability index was determined as 2.22.
With EQIAERKRKMVSWNASSLGLVTAA [E14N], the protein stability index was determined as 3.39.
Take EQIAERKRKMVSWVASSLGLVTAA [E14V]: the protein stability index was determined as 1.97.
EQIAERKRKMVSWFASSLGLVTAA [E14F]: the protein stability index turned out to be 1.97.
With EQIAERKRKMVSWHASSLGLVTAA [E14H], the protein stability index was found to be 2.85.
On to EQIAERKRKMVSWQASSLGLVTAA [E14Q], for which the protein stability index is 2.32.
Consider EQIAERKRKMVSWEASSLMLVTAA [G19M], for which the protein stability index was found to be 2.65.
Consider EQIAERKRKMVSWEASSLNLVTAA [G19N], for which the protein stability index amounted to 2.95.
Take EQIAERKRKMVSWEASSLSLVTAA [G19S]: the protein stability index stood at 3.84.
With EQIAERKRKMVSWEASSLCLVTAA [G19C], the protein stability index was determined as 2.38.
In the case of EQIAERKRKMVSWEASSLQLVTAA [G19Q], the protein stability index was found to be 3.49.
With EQIAERKRKMVSWEASSLVLVTAA [G19V], the protein stability index amounted to 2.9.
For EQIAERKRKMVSWEASSLDLVTAA [G19D], the protein stability index is 3.32.
With EQIAERKRKMVSWEASSLELVTAA [G19E], the protein stability index turned out to be 3.71.
As to EQIAERKRKMVSWEASSLYLVTAA [G19Y], the protein stability index amounted to 1.84.
For the variant EQIAERKRKMVSWEASSLKLVTAA [G19K], the protein stability index is 3.09.
Take EQIAERKRKMVSWEASSLRLVTAA [G19R]: the protein stability index was determined as 3.16.
On to EQIAERKRKMVSWEASSLALVTAA [G19A], for which the protein stability index came to 2.1.
In the case of EQIAERKRKMVSWEASSLTLVTAA [G19T], the protein stability index worked out at 3.25.
With EQIAERKRKMVSWEASSLHLVTAA [G19H], the protein stability index came out at 2.68.
For the variant EQIAERKRKMVSWEASSLWLVTAA [G19W], the protein stability index amounted to 1.74.
Consider EQIAERKRKMVSWEASSLGVVTAA [L20V], for which the protein stability index came out at 3.37.
Then EQIAERKRKMVSWEASSLGWVTAA [L20W], with 2.42; and EQIAERKRKMVSWEASSLGQVTAA [L20Q], with 3.47; and EQIAERKRKMVSWEASSLGKVTAA [L20K], with 3.9.
As for EQIAERKRKMVSWEASSLGPVTAA [L20P], the protein stability index worked out at 3.72.
As to EQIAERKRKMVSWEASSLGCVTAA [L20C], the protein stability index stood at 3.71.
For EQIAERKRKMVSWEASSLGTVTAA [L20T] the value was 3.87.
For EQIAERKRKMVSWEASSLGDVTAA [L20D] the value was 3.82; for EQIAERKRKMVSWEASSLGNVTAA [L20N], 3.62; for EQIAERKRKMVSWEASSLGYVTAA [L20Y], 2.68.
As for EQIAERKRKMVSWEASSLGHVTAA [L20H], the protein stability index amounted to 3.54.
Regarding EQIAERKRKMVSWEASSLGIVTAA [L20I], the protein stability index worked out at 3.77.
EQIAERKRKMVSWEASSLGFVTAA [L20F]: the protein stability index was 3.35.
As for EQIAERKRKMVSWEASSLGEVTAA [L20E], the protein stability index was determined as 4.3.
For EQIAERKRKMVSWEASSLGSVTAA [L20S] the value was 4.99; for EQIAERKRKMVSWEAQSLGLVTAA [S16Q], 3.05.
On to EQIAERKRKMVSWEAVSLGLVTAA [S16V], for which the protein stability index was 2.29.
For the variant EQIAERKRKMVSWEAESLGLVTAA [S16E], the protein stability index turned out to be 3.02.
Consider EQIAERKRKMVSWEALSLGLVTAA [S16L], for which the protein stability index came out at 1.99.
With EQIAERKRKMVSWEAHSLGLVTAA [S16H], the protein stability index is 1.57.
As for EQIAERKRKMVSWEAPSLGLVTAA [S16P], the protein stability index came out at 3.
As for EQIAERKRKMVSWEAKSLGLVTAA [S16K], the protein stability index was 3.23.
Turning to EQIAERKRKMVSWEARSLGLVTAA [S16R], the protein stability index came to 3.57.
For EQIAERKRKMVSWEAWSLGLVTAA [S16W], the protein stability index worked out at 1.77.
For the variant EQIAERKRKMVSWEATSLGLVTAA [S16T], the protein stability index was 2.77.
Then EQIAERKRKMVSWEACSLGLVTAA [S16C], with 2.59; and EQIAERKRKMVSWEAISLGLVTAA [S16I], with 1.94.
Take EQIAERKRKMVSWEAASLGLVTAA [S16A]: the protein stability index came out at 3.11.
Then EQIAERKRKMVSWEADSLGLVTAA [S16D], with 2.86; and EQIAERKRKMVSWEASSDGLVTAA [L18D], with 4.24.
As to EQIAERKRKMVSWEASSIGLVTAA [L18I], the protein stability index is 1.91.
With EQIAERKRKMVSWEASSGGLVTAA [L18G], the protein stability index was found to be 3.48.
Consider EQIAERKRKMVSWEASSNGLVTAA [L18N], for which the protein stability index worked out at 3.52.
Take EQIAERKRKMVSWEASSKGLVTAA [L18K]: the protein stability index is 3.86.
For the variant EQIAERKRKMVSWEASSTGLVTAA [L18T], the protein stability index was determined as 3.5.
Then EQIAERKRKMVSWEASSHGLVTAA [L18H], with 2.97.
Turning to EQIAERKRKMVSWEASSEGLVTAA [L18E], the protein stability index turned out to be 4.66.
Then EQIAERKRKMVSWEASSQGLVTAA [L18Q], with 3.72.
As for EQIAERKRKMVSWEASSPGLVTAA [L18P], the protein stability index turned out to be 3.4.
With EQIAERKRKMVSWEASSVGLVTAA [L18V], the protein stability index came out at 2.53.
As to EQIAERKRKMVSWEASSYGLVTAA [L18Y], the protein stability index is 2.77.
Regarding EQIAERKRKMVSWEASSFGLVTAA [L18F], the protein stability index was determined as 2.43.
Then EQIAERKRKMVSWEASSCGLVTAA [L18C], with 2.97; and EQIAERKRKMVSWEASSSGLVTAA [L18S], with 1.92; and EQIAERKRKMVSWEASSAGLVTAA [L18A], with 3.31.
Turning to EQIAERKRKMVSWEASSMGLVTAA [L18M], the protein stability index is 3.16.
Then EQIAERKRKMVSWEASSRGLVTAA [L18R], with 3.01.
Turning to EQIAERKRKMVFWEASSLGLVTAA [S12F], the protein stability index worked out at 2.16.
For the variant EQIAERKRKMVKWEASSLGLVTAA [S12K], the protein stability index was determined as 2.59.
For EQIAERKRKMVNWEASSLGLVTAA [S12N], the protein stability index is 3.19.
For the variant EQIAERKRKMVCWEASSLGLVTAA [S12C], the protein stability index came out at 2.36.
Regarding EQIAERKRKMVLWEASSLGLVTAA [S12L], the protein stability index was 2.37.
EQIAERKRKMVQWEASSLGLVTAA [S12Q]: the protein stability index was found to be 2.33.
On to EQIAERKRKMVEWEASSLGLVTAA [S12E], for which the protein stability index worked out at 3.92.
For the variant EQIAERKRKMVAWEASSLGLVTAA [S12A], the protein stability index was 3.35.
In the case of EQIAERKRKMVMWEASSLGLVTAA [S12M], the protein stability index was 3.36.
Turning to EQIAERKRKMVVWEASSLGLVTAA [S12V], the protein stability index stood at 2.68.
With EQIAERKRKMVHWEASSLGLVTAA [S12H], the protein stability index was 2.35.
Turning to EQIAERKRKMVPWEASSLGLVTAA [S12P], the protein stability index came to 2.59.
For EQIAERKRKMVRWEASSLGLVTAA [S12R] the value was 3.36; for EQIAERKRKMVDWEASSLGLVTAA [S12D], 2.85.
In the case of EQIAERKRKMVYWEASSLGLVTAA [S12Y], the protein stability index is 2.22.
On to EQIAERKRKTVSWEASSLGLVTAA [M10T], for which the protein stability index came out at 3.55.
On to EQIAERKRKVVSWEASSLGLVTAA [M10V], for which the protein stability index turned out to be 2.82.
Then EQIAERKRKSVSWEASSLGLVTAA [M10S], with 3.69; and EQIAERKRKYVSWEASSLGLVTAA [M10Y], with 2.89.
For EQIAERKRKQVSWEASSLGLVTAA [M10Q] the value was 3.95; for EQIAERKRKRVSWEASSLGLVTAA [M10R], 4.01.
